Drawing on publication PMC7195432, “MD2 activation by direct AGE interaction drives inflammatory diabetic cardiomyopathy” (Nature Communications, 2020), this text covers Kd for 1 molecule.

The test has as its target T1, glucose-derived AGE-modified bovine serum albumin (AGE-BSA) (bovine, UniProt P02769 25-607, advanced glycation end product (AGE) modification, glucose-derived, glycolaldehyde-mediated; the modified residues are not stated).
T1 construct: bovine serum albumin, chemically AGE-modified; A heterogeneous glycated preparation; also called AGE-modified BSA; glucose-derived, glycolaldehyde-mediated AGE-BSA; source: bought: BioVision Incorporated (Cat # 2223), purity >98%
Briefly: ITC; Nano-ITC, 25 °C, proteins in ddH2O; AGE-BSA (1 μM) in the cell, MD2 protein solution (5 μM) in the syringe, 20 injections of 2.5 μL; independent model. The settings on record: both partners purified.

T1 sequence (P02769 25-607): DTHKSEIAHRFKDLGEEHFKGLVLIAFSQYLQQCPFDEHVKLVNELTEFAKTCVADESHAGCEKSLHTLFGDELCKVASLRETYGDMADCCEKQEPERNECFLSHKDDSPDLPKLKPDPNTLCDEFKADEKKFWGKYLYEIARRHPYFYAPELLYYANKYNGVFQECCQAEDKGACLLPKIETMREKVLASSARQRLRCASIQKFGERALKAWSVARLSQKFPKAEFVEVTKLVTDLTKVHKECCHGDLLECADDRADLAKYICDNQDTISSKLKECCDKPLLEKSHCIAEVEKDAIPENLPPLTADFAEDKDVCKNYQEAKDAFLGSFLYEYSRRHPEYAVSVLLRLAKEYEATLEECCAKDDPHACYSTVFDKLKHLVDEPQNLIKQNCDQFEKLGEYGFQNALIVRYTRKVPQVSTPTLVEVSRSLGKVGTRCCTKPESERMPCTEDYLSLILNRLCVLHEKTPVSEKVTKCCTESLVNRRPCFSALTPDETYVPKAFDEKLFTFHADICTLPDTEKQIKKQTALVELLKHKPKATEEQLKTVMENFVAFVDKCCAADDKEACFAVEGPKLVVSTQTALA

B1: recombinant human MD2 (rhMD2) (natural protein, UniProt Q9Y6Y9 19-160, looked up)
chain: QKQYWVCNSSDASISYTYCDKMQYPISINVNPCIELKRSKGLLHIFYIPRRDLKQLYFNLYITVNTMNLPKRKEVICRGSDDDYSFCRALKGETVNTTISFSFKGIKFSKGKYKCVVEAISGSPEEMLFCLEFVILHQPNSN
notes: MD2 (myeloid differentiation 2), human, recombinant; also called human recombinant MD2 protein; source: bought: R&D Systems
The Kd is a measure of binding affinity in units of concentration. Low values mean a tighter complex, high ones a looser complex. The molecule B1 came in with a Kd of 81 µM.
